# Measurements from patent US20120027785A1.
# T1: CdtA-CdtC heterodimer (wild-type CdtA-His6 and CdtC-His6)
# T1 chain 1: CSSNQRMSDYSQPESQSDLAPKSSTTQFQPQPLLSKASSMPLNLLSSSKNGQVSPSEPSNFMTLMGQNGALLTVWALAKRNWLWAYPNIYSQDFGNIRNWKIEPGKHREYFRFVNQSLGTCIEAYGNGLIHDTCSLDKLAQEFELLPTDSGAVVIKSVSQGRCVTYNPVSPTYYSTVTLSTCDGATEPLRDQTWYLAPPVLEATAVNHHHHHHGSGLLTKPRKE
# T1 chain 2: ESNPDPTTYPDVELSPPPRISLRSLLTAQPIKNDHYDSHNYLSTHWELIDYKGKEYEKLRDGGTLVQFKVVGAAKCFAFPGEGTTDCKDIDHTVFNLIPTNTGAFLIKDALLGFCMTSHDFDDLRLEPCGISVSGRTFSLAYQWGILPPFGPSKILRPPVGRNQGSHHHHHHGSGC
# B1: CdtB/DNase I hybrid protein (from pETBDN2) (protein)
# chain: NLSDFKVATWNLQGSSAVNESKWNINVRQLLSGEQGADILMVQEAGSLPSSAVRTSRVIQHGGTPIEEYTWNLGTRSRPNMVYIYYSRLDVGANRVNLAIVSRRQADEAFIVHSDSSVLQSRPAVGIRIGTDVFFTVHAAPGDAVAEIDALYDVYLDVQEKWGLEDVMLMGDFNAGCSYVRPSQWSSIRLWTSPTFQWLIPDSADTTATPTHCAYDRIVVAGMLLRGAVVPDSALPFNFQAANGLSDQLAQAISDHYPVEVMLKHHHHHHHMLEDPAANKAQKK
# Assays:
# [1] = biological target: human CD133 (prominin-1) (human) (UniProt O43490); test: flow cytometry on RPMI 2650 cells, directly PE-conjugated antibody
# [2] = biological target: T1, CdtA-CdtC heterodimer (wild-type …)
Molecule,median fluorescence (MF) [1],DNA nicking activity of reconstituted heterotrimer preparations [2]
mouse anti-human CD133/1 MAb conjugated to PE (Miltenyi Biotec) (antibody),64.8,
B1,,reconstituted heterotrimer preparations containing the CdtB/DNase I hybrid protein failed to convert supercoiled DNA to linear and relaxed forms
